For series [1], the target named is T1, native, full-length VZV gB purified from VZV infected MeWo cells (varicella-zoster virus (parental Oka …, UniProt Q4JR05, N-linked glycosylation (sites in S4 Table))).
T1 construct: VZV glycoprotein B (ORF31), parental Oka strain, residues up to 931; 71-residue signal peptide; native gB is cleaved by furin at 491RSRR494 into two fragments; residues 115-736 resolved in the cryo-EM structure; Held in Amphipol 8-35; also called glycoprotein B; native, full-length gB; not shown: V5, C-terminal, cleaved
Nature of the series: cryo-EM structure; Fab fragments added in molar excess to native, full-length gB in TBS pH7.4 with Amphipol 8-35, overnight at +4°C; complexes purified on Superose-6 in TBS pH7.4; 200kV F20 microscope. To be noted: both partners purified.

Series [2] addresses T2, VZV gB wild type expressed from pCAGGS-gB in CHO-DSP1 cells (varicella-zoster virus, UniProt Q4JR05).
T2 construct: VZV glycoprotein B (ORF31) expressed from pCAGGS-gB; detected by an antiserum to residues 833-846 of the cytoplasmic region; also called WT gB; gB-WT; source: CHO-DSP1, transfected (pCAGGS-gB), in lysate; also on fixed transfected cells
Nature of the series: western blot; reducing, denaturing SDS-PAGE of anti-V5 immunoprecipitates from transfected CHO-DSP1 cells, blot probed with mAb 93k. The following applies: one partner purified. On the technique in general: A western blot detects proteins with antibodies after separation by electrophoresis.

Series [3] deals with the molecule itself. Put plainly: crystal structure; gB ectodomain; 0.1 M Na acetate pH 4.6, 20% PEG 400, 6% ethylene glycol, room temperature vapor diffusion.
Series [4] deals with the molecule itself. Put plainly: cryo-EM structure; native, full-length gB without antibody, in Amphipol 8-35, TBS pH7.4; 300kV Titan Krios; C3 symmetry imposed.

B1: Fab fragment of the neutralizing human mAb 93k (Fab, V domains shown)
VH: QVQLVQSGAEVKKPGSSVKVSCKASGGTFSNFAISWVRQAPGQGLEWMGRIMPLFVTSTYAQKFQGRVTISADASTSTAYMELSSLRSDDTAMYYCARDITAPGAAPTPLNFYGMDVWGQGTTVTVSS
VL: DIQMTQSPSTLSASVGDRVTITCRASQTISTWLAWYQQTPRKAPKLMIYKASILENGVPSRFSGSGSGTEFTLTISSLQPEDFATYYCQQYKSYPWTFGQGTKVEI
notes: map of gB-93k deposited here as EMD-22519; I53 of the VL chain is named; also called 93k Fab
With B1, the binding result in series [1] is recorded as “binds”.

B2: human neutralizing monoclonal antibody 93k (antibody, V domains shown)
VH: B1 VH
VL: B1 VL
notes: variable part as the heavy chain of m12; as the light chain of m12; Human IgG (detected with anti-human IgG); also called mAb 93k
On to B2, for which the binding result in series [2] is given as “binds”.

B3: VZV gB ectodomain used for X-ray crystallography (domain or fragment, varicella-zoster virus (Oka strain), UniProt Q4JR05 72-736, looked up)
chain: VSPSSFYESLQVEPTQSEDITRSAHLGDGDEIREAIHKSQDAETKPTFYVCPPPTGSTIVRLEPPRTCPDYHLGKNFTEGIAVVYKENIAAYKFKATVYYKDVIVSTAGAGSSGTQITNRYADRVPIPVSEITDTIDKFGKCSSKATYVRNNHKVEAFNEDKNPQDMPLIASKYNSVGSKAWHTTNDTYMVAGTPGTYRTGTSVNCIIEEVEARSIFPYDSFGLSTGDIIYMSPFFGLRDGAYREHSNYAMDRFHQFEGYRQRDLDTRALLEPAARNFLVTPHLTVGWNWKPKRTEVCSLVKWREVEDVVRDEYAHNFRFTMKTLSTTFISETNEFNLNQIHLSQCVKEEARAIINRIYTTRYNSSHVRTGDIQTYLARGGFVVVFQPLLSNSLARLYLQELVRENTNHSPQKHPTRNTGSGGSVPVELRANRTITTTSSVEFAMLQFTYDHIQEHVNEMLARISSSWCQLQNRERALWSGLFPINPSALASTILDQRVKARILGDVISVSNCPELGSDTRIILQNSMRVSGSTTRCYSRPLISIVSLNGSGTVEGQLGTDNELIMSRDLLEPCVANHKRYFLFGHHYVYYEDYRYVREIAVHDVGMISTYVDLNLTLLKDREFMPLQVYTRDELRDTGLLDYSEIQRRNQMHSLRFYDIDKVVQ
modifications: N-linked glycosylation (sites in S4 Table)
notes: VZV glycoprotein B (ORF31), Oka strain, codon-modified; residues 72-736, without the 71 amino acid signal peptide; residues 115-736 resolved in the crystal; also called truncated gB; truncated VZV gB; source: HEK293 GnTI- cells, transiently transfected (pCMV-III), purified (Ni-NTA, ion-exchange, Superdex 200)
B3: the “stoichiometry N” value in series [3] turned out to be 3.

B4: native, full-length VZV gB purified from VZV infected MeWo cells (natural protein)
chain: VSPSSFYESLQVEPTQSEDITRSAHLGDGDEIREAIHKSQDAETKPTFYVCPPPTGSTIVRLEPPRTCPDYHLGKNFTEGIAVVYKENIAAYKFKATVYYKDVIVSTAWAGSSYTQITNRYADRVPIPVSEITDTIDKFGKCSSKATYVRNNHKVEAFNEDKNPQDMPLIASKYNSVGSKAWHTTNDTYMVAGTPGTYRTGTSVNCIIEEVEARSIFPYDSFGLSTGDIIYMSPFFGLRDGAYREHSNYAMDRFHQFEGYRQRDLDTRALLEPAARNFLVTPHLTVGWNWKPKRTEVCSLVKWREVEDVVRDEYAHNFRFTMKTLSTTFISETNEFNLNQIHLSQCVKEEARAIINRIYTTRYNSSHVRTGDIQTYLARGGFVVVFQPLLSNSLARLYLQELVRENTNHSPQKHPTRNTRSRRSVPVELRANRTITTTSSVEFAMLQFTYDHIQEHVNEMLARISSSWCQLQNRERALWSGLFPINPSALASTILDQRVKARILGDVISVSNCPELGSDTRIILQNSMRVSGSTTRCYSRPLISIVSLNGSGTVEGQLGTDNELIMSRDLLEPCVANHKRYFLFGHHYVYYEDYRYVREIAVHDVGMISTYVDLNLTLLKDREFMPLQVYTRDELRDTGLLDYSEIQRRNQMHSLRFYDIDKVVQYDSGTAIMQGMAQFFQGLGTAGQAVGHVVLGATGALLSTVHGFTTFLSNPFGALAVGLLVLAGLVAAFFAYRYVLKLKTSPMKALYPLTTKGLKQLPEGMDPFAEKPNATDTPIEEIGDSQNTEPSVNSGFDPDKFREAQEMIKYMTLVSAAERQESKARKKNKTSALLTSRLTGLALRNRRGYSRVRTENVTGV
modifications: N-linked glycosylation (sites in S4 Table)
notes: VZV glycoprotein B (ORF31), parental Oka strain, residues up to 931; 71-residue signal peptide; native gB is cleaved by furin at 491RSRR494 into two fragments; residues 115-736 resolved in the cryo-EM structure; Held in Amphipol 8-35; also called glycoprotein B; native, full-length gB; not shown: V5, C-terminal, cleaved
Take B4: the “stoichiometry N” value in series [4] was 3.

Usually stoichiometry N stands for a count of units in the complex or per binding partner.

For the origin of these results see PMC7817050 (PLoS Pathogens, 2021).
